Data taken from patent US20100291106A1 (Novartis, published 2010).
Residue numbers refer to the chain shown, from its start. Like-named read-outs stand apart in the source and are kept apart here. Each block holds one binder with its values, some of them ahead of it.

How the values were obtained:
human C3d [1] = target: T1, human C3d (human, UniProt P01024 1002-1303); assay: cross reactivity, ELISA on C3d, anti-His detection
T1 construct: domain: C3d
Experimental: In order to determine whether the anti-C3b antibodies described herein can bind to complement pathway components iC3b and C3c, the following steps were performed: Directly add iC3b(complement Technologies A115), C3d (complement Technologies A117), or C3c (complement Technologies A116), at 2 μg/ml in Carbonate Buffer onto Coat Maxisorp plate Nunc (442404) at 100 μl per well. Seal plates and incubate at 4° C. overnight. Aspirate plates and wash 3 times with PBS/0.5% Tween 20. Block plates with Diluent (PBS, 4% BSA Fraction V (Fisher ICN16006980), 0.1% Tween 20 (Sigma P1379), 0.1% Triton X-100 (Sigma P234729)) and incubate for 2 h at room temperature or overnight at 4° C. Then wash plates once with PBS/0.5% Tween 20. Dilute Fabs at 100 nM and subsequent dilutions (or higher concentration if needed) in diluent and plate 100 μl per well. Incubate at room temperature for 1 h. Wash plates 3 times with PBS/0.5% Tween 20. Add 100 μl/well of anti-Histidine-HRP monoclonal detection antibody at 1:400 in diluent and incubate at room temperature for 1 h. Then wash 4 times with PBS/0.5% Tween 20. Add 100 μl of TMB substrate (Pierce 34028) and incubate at room temperature for up to 5 min. Add 50 μl of Stop solution (2N Sulfuric Acid) to each well and read plate at 450 nm and correct for plastic reading at 570 nm.

[2] = target: T2, cynomolgus complement C3b protein (cynomolgus monkey (Macaca fascicularis)); assay: SPR (Biacore), C3b captured by anti-C3d antibody, Fab as analyte
T2 construct: also called cyno C3b; cynoC3b

[3] = target: T3, human complement C3b protein (human, UniProt P01024 23-667; P01024 749-1663); assay: as above
T3 construct: Purified plasma C3b (Complement Technology, Quidel); Depending on the assay it was captured by an anti-C3d antibody, coated, biotinylated or coupled to beads; also called human C3b; huC3b

[4] = target: T2, cynomolgus complement C3b protein; assay: solution equilibrium titration (SET), ECL detection, Fab
[5] = target: T3, human complement C3b protein; assay: as above
human C5 [6] = target: T4, human C5 (human, UniProt P01031 19-673; P01031 678-1676); assay: cross reactivity, capture ELISA with anti-C5 capture antibody, anti-His detection
T4 construct: Captured by an anti-C5 antibody in the ELISA

[7] = target: T2, cynomolgus complement C3b protein; assay: cell-based or functional assay
[8] = target: T3, human complement C3b protein; assay: cell-based or functional assay
[9] = target: T2, cynomolgus complement C3b protein; assay: SPR (Biacore T100), C3b captured by anti-C3d antibody, IgG as analyte, 1:1 model
[10] = target: T3, human complement C3b protein; assay: as above
[11] = target: T3, human complement C3b protein; assay: AlphaScreen bead proximity, C3b-Acceptor beads pre-incubated with antibody, then biotinylated fH and SA-Donor beads; blocked ligand: fH [C]
Experimental: In brief, purified C3b and fP were conjugated to unconjugated acceptor or donor beads (PerkinElmer) using AminoLink Reductant (Pierce) during a 48 h incubation at room temperature. Beads were quenched using Carboxymethoxylamine Hemihydrochloride (Aldrich), and purified by centrifugation at 13000 rpm and three washes with 0.1M TBST. Purified fB(D24G/N260D) and fH were biotinylated during a 30 min incubation with 20-fold molar excess of NHS-Chromogenic-biotin (Pierce) at room temperature, and purified using Zeba 0.5 ml desalting columns (Pierce).
For C3b-C3b and C3b-fP proximity, Fabs or IgGs respectively were pre-incubated with C3b-Acceptor beads (20 μg/ml) for 60 min at room temperature. C3b-Donor beads or fP-Donor beads (20 μg/ml) were then added, and the plate was incubated overnight at room temperature before reading. For C3b-fB and C3b-fH proximity, antibodies were pre-incubated with C3b-Acceptor beads (20 μg/ml) for 60 minutes at room temperature. Biotinylated fB(D24G/N260D) or fH were then added, and incubated for 60 minutes at room temperature. SA-Donor beads were then added (20 μg/ml) and the plate was incubated overnight at room temperature before reading. Plates were read on the BMG Pherastar (ex=680, em=520-620).

human C3d [12] = target: T1, human C3d; assay: C3d binding ELISA, IgG titrated from about 0.006 to 100 nM
[13] = target: T3, human complement C3b protein; assay: cell-based or functional assay; remark: listed apart in the source
[14] = target: T3, human complement C3b protein; assay: ELISA, C3b or C3 captured by anti-C3d antibody
Experimental: The C3b antibodies were examined to determine whether they were selective for binding to C3b relative to the C3b precursor C3. Briefly, binding selectivity for C3b was determined by performing the following steps. Coat Maxisorp plate Nunc (442404) with anti-C3d rabbit monoclonal (abcam 17453) at 2 μg/ml in Carbonate Buffer at 100 μl/well. Seal plates and incubate at 4° C. overnight. Aspirate plates and wash 3 times with PBS/0.5% Tween 20. Block plates with Diluent (PBS, 4% BSA Fraction V (Fisher ICN16006980), 0.1% Tween 20 (Sigma P1379), 0.1% Triton X-100 (Sigma P234729)) and incubate for 2 h at room temperature or overnight at 4° C. Then wash plates once with PBS/0.5% Tween 20. Dilute purified C3b (complement technologies A114 lot 21) and C3 (complement technologies A113c) at 1 μg/ml in diluent and plate 100 μl per well. Incubate for 1 h at room temperature. Then wash 3 times with PBS/0.5% Tween 20.
Dilute Fabs at 100 nM and subsequent dilutions (or higher concentration) in diluent and plate 100 μl per well. Incubate at room temperature for 1 h. Wash plates 3 times with PBS/0.5% Tween 20. Add 100 μl/well of anti-Histidine-HRP monoclonal detection antibody at 1:400 in diluent and incubate at room temperature for 1 h. Then wash 4 times with PBS/0.5% Tween 20. Add 100 μl of TMB substrate (Pierce 34028) and incubate at room temperature for up to 5 min. Add 50 μl of Stop solution (2N Sulfuric Acid) to each well and read plate at 450 nm and correct for plastic reading at 570 nm.

human C5 [15] = target: T4, human C5; assay: Direct ELISA at 2 ug/ml C5, 200 nM Fab
[16] = target: T2, cynomolgus complement C3b protein; assay: SPR (Biacore), C3b captured by anti-C3d antibody, Fab as analyte; remark: listed apart in the source
[17] = target: T2, cynomolgus complement C3b protein; assay: solution equilibrium titration (SET), ECL detection, Fab; remark: listed apart in the source
[18] = target: T2, cynomolgus complement C3b protein; assay: cell-based or functional assay; remark: listed apart in the source

T3 sequence (P01024 23-667 P314L, chain 1 of 2): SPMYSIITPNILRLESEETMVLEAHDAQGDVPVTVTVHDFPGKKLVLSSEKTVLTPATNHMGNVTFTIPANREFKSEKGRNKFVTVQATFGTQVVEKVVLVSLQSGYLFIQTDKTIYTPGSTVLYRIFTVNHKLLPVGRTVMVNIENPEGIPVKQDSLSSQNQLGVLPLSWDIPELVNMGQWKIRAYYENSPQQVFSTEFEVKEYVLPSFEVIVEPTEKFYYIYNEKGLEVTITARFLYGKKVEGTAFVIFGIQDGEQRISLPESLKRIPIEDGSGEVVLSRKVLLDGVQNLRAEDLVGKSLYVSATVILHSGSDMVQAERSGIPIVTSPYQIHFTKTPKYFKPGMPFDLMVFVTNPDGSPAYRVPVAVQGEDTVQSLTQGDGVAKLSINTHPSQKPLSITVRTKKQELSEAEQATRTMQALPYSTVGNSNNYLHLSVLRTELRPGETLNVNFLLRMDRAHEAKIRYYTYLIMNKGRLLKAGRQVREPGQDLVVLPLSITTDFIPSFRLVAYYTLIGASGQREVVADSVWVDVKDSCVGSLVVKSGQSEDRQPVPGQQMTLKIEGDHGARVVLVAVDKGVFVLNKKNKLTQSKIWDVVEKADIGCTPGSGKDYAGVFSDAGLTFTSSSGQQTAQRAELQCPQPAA
T3 sequence (P01024 749-1663, chain 2 of 2): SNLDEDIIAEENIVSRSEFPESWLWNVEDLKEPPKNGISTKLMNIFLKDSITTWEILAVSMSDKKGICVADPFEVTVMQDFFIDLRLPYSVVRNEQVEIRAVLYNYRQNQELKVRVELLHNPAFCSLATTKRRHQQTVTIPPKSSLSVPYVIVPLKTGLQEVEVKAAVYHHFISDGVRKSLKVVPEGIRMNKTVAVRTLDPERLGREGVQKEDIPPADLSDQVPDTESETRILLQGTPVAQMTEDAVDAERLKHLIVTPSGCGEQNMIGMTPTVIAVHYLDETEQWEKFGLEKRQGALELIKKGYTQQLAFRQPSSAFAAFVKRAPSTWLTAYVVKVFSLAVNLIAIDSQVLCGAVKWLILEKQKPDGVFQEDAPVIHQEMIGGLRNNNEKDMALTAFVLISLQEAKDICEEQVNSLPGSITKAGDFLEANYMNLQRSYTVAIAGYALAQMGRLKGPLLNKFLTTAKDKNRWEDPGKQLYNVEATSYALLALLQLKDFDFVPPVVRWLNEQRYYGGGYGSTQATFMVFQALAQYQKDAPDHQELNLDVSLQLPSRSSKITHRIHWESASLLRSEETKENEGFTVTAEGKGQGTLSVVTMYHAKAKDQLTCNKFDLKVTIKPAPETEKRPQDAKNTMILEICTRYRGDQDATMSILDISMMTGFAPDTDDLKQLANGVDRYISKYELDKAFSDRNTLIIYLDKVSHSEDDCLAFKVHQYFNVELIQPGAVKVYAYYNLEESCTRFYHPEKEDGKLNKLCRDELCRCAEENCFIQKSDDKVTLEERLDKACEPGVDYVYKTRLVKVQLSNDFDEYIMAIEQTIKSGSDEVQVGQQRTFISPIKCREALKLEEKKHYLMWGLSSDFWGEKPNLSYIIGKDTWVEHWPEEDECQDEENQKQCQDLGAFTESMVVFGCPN
T1 sequence (P01024 1002-1303 limits assumed): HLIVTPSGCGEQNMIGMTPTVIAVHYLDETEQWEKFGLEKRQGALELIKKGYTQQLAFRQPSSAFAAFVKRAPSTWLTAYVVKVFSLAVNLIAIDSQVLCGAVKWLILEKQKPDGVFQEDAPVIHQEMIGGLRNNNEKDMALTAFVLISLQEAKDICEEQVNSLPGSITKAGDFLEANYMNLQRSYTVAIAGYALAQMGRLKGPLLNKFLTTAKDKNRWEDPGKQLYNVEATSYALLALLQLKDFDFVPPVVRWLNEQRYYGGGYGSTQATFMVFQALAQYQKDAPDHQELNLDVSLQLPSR
T4 sequence (P01031 19-673 limits assumed, chain 1 of 2): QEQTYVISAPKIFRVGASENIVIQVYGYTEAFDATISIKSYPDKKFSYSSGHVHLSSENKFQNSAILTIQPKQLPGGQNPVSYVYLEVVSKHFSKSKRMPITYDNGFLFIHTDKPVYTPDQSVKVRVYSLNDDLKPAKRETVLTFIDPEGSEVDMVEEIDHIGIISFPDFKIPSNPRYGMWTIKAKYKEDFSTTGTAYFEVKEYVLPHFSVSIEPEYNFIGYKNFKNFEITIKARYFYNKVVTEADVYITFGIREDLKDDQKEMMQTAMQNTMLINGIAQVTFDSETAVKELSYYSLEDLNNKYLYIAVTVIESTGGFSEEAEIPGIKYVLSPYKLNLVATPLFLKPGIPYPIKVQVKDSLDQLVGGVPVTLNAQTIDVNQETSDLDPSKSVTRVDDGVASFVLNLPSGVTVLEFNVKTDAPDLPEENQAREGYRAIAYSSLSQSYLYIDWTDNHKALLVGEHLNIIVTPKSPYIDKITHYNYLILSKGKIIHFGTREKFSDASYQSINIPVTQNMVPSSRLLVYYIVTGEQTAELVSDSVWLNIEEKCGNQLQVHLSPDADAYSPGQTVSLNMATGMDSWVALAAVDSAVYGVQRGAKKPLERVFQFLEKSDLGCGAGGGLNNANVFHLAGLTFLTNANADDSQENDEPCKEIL
T4 sequence (P01031 678-1676 limits assumed, chain 2 of 2): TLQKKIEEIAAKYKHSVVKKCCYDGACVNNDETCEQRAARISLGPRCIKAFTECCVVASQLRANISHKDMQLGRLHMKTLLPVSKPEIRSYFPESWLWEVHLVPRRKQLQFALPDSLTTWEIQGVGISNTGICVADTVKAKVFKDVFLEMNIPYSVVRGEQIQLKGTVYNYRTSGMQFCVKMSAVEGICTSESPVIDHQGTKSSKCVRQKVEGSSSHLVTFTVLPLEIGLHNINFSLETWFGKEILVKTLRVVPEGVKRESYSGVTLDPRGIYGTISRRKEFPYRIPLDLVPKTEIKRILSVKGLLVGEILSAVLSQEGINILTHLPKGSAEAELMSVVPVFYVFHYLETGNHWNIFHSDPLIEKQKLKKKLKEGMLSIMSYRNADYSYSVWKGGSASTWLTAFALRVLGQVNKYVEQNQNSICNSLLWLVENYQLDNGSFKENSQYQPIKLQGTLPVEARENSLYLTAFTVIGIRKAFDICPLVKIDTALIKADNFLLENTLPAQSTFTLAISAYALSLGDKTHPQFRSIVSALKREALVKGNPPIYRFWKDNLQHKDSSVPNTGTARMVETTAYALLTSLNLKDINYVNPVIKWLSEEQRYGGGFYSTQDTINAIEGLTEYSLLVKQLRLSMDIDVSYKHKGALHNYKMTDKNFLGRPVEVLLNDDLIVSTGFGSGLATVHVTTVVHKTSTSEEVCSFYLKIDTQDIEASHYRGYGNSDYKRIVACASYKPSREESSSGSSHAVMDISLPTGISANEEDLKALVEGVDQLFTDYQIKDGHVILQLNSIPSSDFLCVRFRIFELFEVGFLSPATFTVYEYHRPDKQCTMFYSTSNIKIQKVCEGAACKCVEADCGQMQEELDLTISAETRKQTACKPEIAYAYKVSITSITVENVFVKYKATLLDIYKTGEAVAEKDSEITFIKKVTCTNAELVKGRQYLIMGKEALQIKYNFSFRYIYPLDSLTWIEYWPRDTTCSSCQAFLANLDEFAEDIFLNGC

B1: MOR09136 Fab (Fab, V domains shown)
VH: QVQLVQSGAEVKKPGSSVKVSCKASGGTFSSYTFSWVRQAPGQGLEWMGNILPIFGDANYAQKFQGRVTITADESTSTAYMELSSLRSEDTAVYYCARNKGAFYYMSTYPSLDVWGQGTLVTVSS
VL: DIQMTQSPSSLSASVGDRVTITCRASQNINYYLNWYQQKPGKAPKLLIYDAFSLQSGVPSRFSGSGSGTDFTLTISSLQPEDFATYYCQQSWSVPPFTFGQGTKVEIKR
notes: also called Fab 9136
- binding result (human C3d [1]): no binding
- Kd [2]: 0.005 nM
- Kd [3]: 0.075 nM
- Kd [4]: 0.016 nM
- Kd [5]: 0.096 nM
- binding result (human C5 [6]): no binding
- C3b Dep (nM), cyno serum, IC50 [7]: 3 nM
- HA (nM), 10% cyno serum, IC50 [7]: 52 nM
- MAC Dep (nM), cyno serum, IC50 [7]: 3 nM
- C3b Dep (nM), human serum, IC50 [8]: 8 nM
- HA (nM), 10% human serum, IC50 [8]: 32 nM
- MAC Dep (nM), human serum, IC50 [8]: 2 nM

B2: MOR09609 IgG (antibody, V domains shown)
VH: B1 VH with Q1E
VL: B1 VL
notes: Germlined human IgG1 with leucines 234 and 235 changed to alanines, kappa; also called antibody 9609
- Kd [9]: 0.0228 nM
- koff [9]: 4.6e-05 s⁻¹
- kon [9]: 2.02e+06 M⁻¹ s⁻¹
- Kd [10]: 0.0022 nM
- koff [10]: 3.16e-06 s⁻¹
- kon [10]: 1.44e+06 M⁻¹ s⁻¹
- IC50 (read off the curve) [11]: ~0.1 nM
- binding result (human C3d [12]): no binding (tested: 100 nM)
- MAC deposition on zymosan, IC50 [13]: ≤ 5 nM
- hemolysis of rabbit red blood cells, 10% human or cynomolgus serum, IC50 [13]: ≤ 50 nM
- inhibition of C3a and C5a generation during hemolysis, IC50 [13]: ≤ 50 nM
- fold binding selectivity for C3b over C3 [14]: > 1000 fold

B5: MOR09610 IgG (antibody, V domains shown)
VH: B1 VH with Q1E
VL: B1 VL with W92I, S93A
notes: Germlined human IgG1 with leucines 234 and 235 changed to alanines, kappa; also called antibody 9610
- Kd [9]: 0.0335 nM
- koff [9]: 6.41e-05 s⁻¹
- kon [9]: 1.91e+06 M⁻¹ s⁻¹
- Kd [10]: 0.0049 nM
- koff [10]: 4.02e-06 s⁻¹
- kon [10]: 820000 M⁻¹ s⁻¹
- IC50 (read off the curve) [11]: ~0.2 nM
- binding result (human C3d [12]): no binding (tested: 100 nM)
- MAC deposition on zymosan, IC50 [13]: ≤ 5 nM
- hemolysis of rabbit red blood cells, 10% human or cynomolgus serum, IC50 [13]: ≤ 50 nM
- inhibition of C3a and C5a generation during hemolysis, IC50 [13]: ≤ 50 nM
- fold binding selectivity for C3b over C3 [14]: > 1000 fold

B6: MOR09373 Fab (Fab, V domains shown)
VH: QVQLVQSGAEVKKPGASVKVSCKASGYTFTSYSMHWVRQAPGQGLEWMGLINPYNGNTHYAQKFQGRVTMTRDTSISTAYMELSSLRSEDTAVYYCARMLRFDVWGQGTLVTVSS
VL: DIALTQPASVSGSPGQSITISCTGTSSDGGGYNYVSWYQQHPGKAPKLMIYGVSNRPSGVSNRFSGSKSGNTASLTISGLQAEDEADYYCQTYTRYSDSPVFGGGTKLTVLG
notes: also called Fab 9373
- Kd [2]: 0.009 nM
- Kd [4]: 0.078 nM
- binding result (human C5 [6]): no binding
- C3b Dep (nM), cyno serum, IC50 [7]: 5 nM
- HA (nM), 10% cyno serum, IC50 [7]: 62 nM
- MAC Dep (nM), cyno serum, IC50 [7]: 6 nM

Results, then the binder that gave them:

- binding result (human C5 [15]): no binding (tested: 200 nM)
B3: 9609 (Fab, V domains shown)
VH: B1 VH with Q1E
VL: DIQMTQSPSSLSASVGDRVTITCRASQNINYYLNWYQQKPGKAPKLLIYDAFSLQSGVPSRFSGSGSGTDFTLTISSLQPEDFATYYCQQSWSVPPFTFGQGTKVEIK
notes: the IgG is m13; also called 9609 Fab format; MOR9609 Fab

- binding result (human C3d [1]): no binding
- Kd [2]: 0.004 nM
- Kd [3]: 0.039 nM
- Kd [4]: 0.02 nM
- Kd [5]: 0.1 nM
- binding result (human C5 [6]): no binding
- C3b Dep (nM), cyno serum, IC50 [7]: 9 nM
- HA (nM), 10% cyno serum, IC50 [7]: 43 nM
- MAC Dep (nM), cyno serum, IC50 [7]: 2 nM
- C3b Dep (nM), human serum, IC50 [8]: 7 nM
- HA (nM), 10% human serum, IC50 [8]: 27 nM
- MAC Dep (nM), human serum, IC50 [8]: 1 nM
B4: MOR09141 Fab (Fab, V domains shown)
VH: B1 VH
VL: B1 VL with W92I, S93A
notes: also called Fab 9141

- Kd [16]: 0.119 nM
- binding result (human C5 [15]): no binding (tested: 200 nM)
- Kd [17]: 0.09 nM
- C3b Dep (nM), cyno serum, IC50 [18]: 70 nM
- HA (nM), 10% cyno serum, IC50 [18]: 78 nM
- MAC Dep (nM), cyno serum, IC50 [18]: 17 nM
B7: MOR9674 Fab format (Fab, V domains shown)
VH: B6 VH with Q1E
VL: B6 VL with D1E, I2S

- Kd [9]: 0.00713 nM
- koff [9]: 5.95e-05 s⁻¹
- kon [9]: 8.34e+06 M⁻¹ s⁻¹
B8: MOR09674 IgG (antibody, V domains shown)
VH: B6 VH with Q1E
VL: B6 VL with D1E, I2S
notes: Germlined human IgG1 with leucines 234 and 235 changed to alanines, lambda; also called antibody 9674
